Measurements published in paper PMC8582233.
pKd: −log10 of the molar value.

Target: Recombinant SARS-CoV-2 S trimer (SARS-CoV-2) (UniProt P0DTC2)
Assay: MST

Substance | pKd
Recombinant DC-SIGN/CD209 (from UniProt Q9NNX6 1-404) (receptor) | 7.54
Recombinant L-SIGN/CD299 (from UniProt Q9H2X3 1-399) (receptor) | 7.36
